One variant from IntAct's records for PubMed 22317921 can be followed below.

B1: Zinc transporter SLC39A7 (Homo sapiens), Q92504 (parent)
chain: MARGLGAPHWVAVGLLTWATLGLLVAGLGGHDDLHDDLQEDFHGHSHRHSHEDFHHGHSHAHGHGHTHESIWHGHTHDHDHGHSHEDLHHGHSHGYSHESLYHRGHGHDHEHSHGGYGESGAPGIKQDLDAVTLWAYALGATVLISAAPFFVLFLIPVESNSPRHRSLLQILLSFASGGLLGDAFLHLIPHALEPHSHHTLEQPGHGHSHSGQGPILSVGLWVLSGIVAFLVVEKFVRHVKGGHGHSHGHGHAHSHTRGSHGHGRQERSTKEKQSSEEEEKETRGVQKRRGGSTVPKDGPVRPQNAEEEKRGLDLRVSGYLNLAADLAHNFTDGLAIGASFRGGRGLGILTTMTVLLHEVPHEVGDFAILVQSGCSKKQAMRLQLLTAVGALAGTACALLTEGGAVGSEIAGGAGPGWVLPFTAGGFIYVATVSVLPELLREASPLQSLLEVLGLLGGVIMMVLIAHLE

This assay covers variants of B1. As to conditions: with csk21_human CSNK2A1, P68400.
csk21_human CSNK2A1, P68400, sequence (P68400 whole entry, looked up): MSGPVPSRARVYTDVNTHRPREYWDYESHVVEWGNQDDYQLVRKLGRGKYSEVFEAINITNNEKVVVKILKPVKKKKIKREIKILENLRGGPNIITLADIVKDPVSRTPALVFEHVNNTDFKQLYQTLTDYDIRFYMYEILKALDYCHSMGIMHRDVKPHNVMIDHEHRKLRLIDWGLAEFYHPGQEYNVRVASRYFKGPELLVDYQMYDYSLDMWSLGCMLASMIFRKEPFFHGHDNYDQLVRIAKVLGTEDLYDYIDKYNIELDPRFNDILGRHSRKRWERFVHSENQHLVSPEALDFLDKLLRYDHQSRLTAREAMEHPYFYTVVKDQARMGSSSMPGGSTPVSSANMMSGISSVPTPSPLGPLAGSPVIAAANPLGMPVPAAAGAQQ
Regarding MARGLGAPHWVAVGLLTWATLGLLVAGLGGHDDLHDDLQEDFHGHSHRHSHEDFHHGHSHAHGHGHTHESIWHGHTHDHDHGHSHEDLHHGHSHGYSHESLYHRGHGHDHEHSHGGYGESGAPGIKQDLDAVTLWAYALGATVLISAAPFFVLFLIPVESNSPRHRSLLQILLSFASGGLLGDAFLHLIPHALEPHSHHTLEQPGHGHSHSGQGPILSVGLWVLSGIVAFLVVEKFVRHVKGGHGHSHGHGHAHSHTRGSHGHGRQERSTKEKQAAEEEEKETRGVQKRRGGSTVPKDGPVRPQNAEEEKRGLDLRVSGYLNLAADLAHNFTDGLAIGASFRGGRGLGILTTMTVLLHEVPHEVGDFAILVQSGCSKKQAMRLQLLTAVGALAGTACALLTEGGAVGSEIAGGAGPGWVLPFTAGGFIYVATVSVLPELLREASPLQSLLEVLGLLGGVIMMVLIAHLE [S275A;S276A], the “effect of a mutation on the interaction” value was “decreasing interaction”.
